Source: patent US20260226104A1 (Dana-Farber, published 2026)
Changes are numbered by the printed parent chain. Names may count otherwise. One block for each binder: values may come before it. Bridges are numbered along the chain shown (N, C = ends). Where no end group is shown, it is not given here. [ ]: non-standard residue; d: D form. The star is where a group is joined. D‑NA = N-terminal D-nipecotic acid moiety terminating in acrylamide (cysteine-reactive warhead); Biotin = O=C1N[C@H]2[C@H](CS[C@H]2CCCCC(=O)*)N1; R8 = C=CCCCCCC[C@@](C)(N)C(=O)O; S5 = C=CCCC[C@](C)(N)C(=O)O

Tests used:
His-BFL-1ΔC [1] = target: T1, His-BFL-1ΔC (human, UniProt Q16548 1-151); assay: in vitro covalent conjugation; reducing and denaturing gel electrophoresis
T1 construct: also called WT His-BFL-1ΔC; wild-type BFL-1 construct; not shown: N-terminal hexahistidine tag (pET17b)
T1 sequence: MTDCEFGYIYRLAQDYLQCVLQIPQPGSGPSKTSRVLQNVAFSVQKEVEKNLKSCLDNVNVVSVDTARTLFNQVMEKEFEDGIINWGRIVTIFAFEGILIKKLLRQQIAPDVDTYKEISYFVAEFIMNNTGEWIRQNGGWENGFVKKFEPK

[2] = target: T2, recombinant full-length BFL-1 (human, UniProt Q16548 1-175); assay: as above
T2 construct: not shown: N-terminal hexahistidine tag
T2 sequence: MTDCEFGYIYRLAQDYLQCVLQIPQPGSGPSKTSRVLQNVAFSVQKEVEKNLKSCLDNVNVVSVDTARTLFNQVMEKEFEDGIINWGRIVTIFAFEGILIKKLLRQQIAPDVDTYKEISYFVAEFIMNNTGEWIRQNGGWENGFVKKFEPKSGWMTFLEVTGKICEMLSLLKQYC

full length HA-BFL1 = target: T3, full length HA-BFL1 (human, UniProt Q16548 1-175); assay: 293T cells treated with 20 µM NOXA SAHB for 12 hours; anti-HA western of lysates
T3 construct: also called HA-tagged full-length BFL-1; expressed full-length BFL-1; not shown: HA tag
T3 sequence: T2 sequence
From the text: Of note, native BFL-1 runs at a higher molecular weight than recombinant or expressed BFL-1.

His-BFL-1ΔC [3] = target: T1, His-BFL-1ΔC; assay: streptavidin pull-down of biotinylated SAHB from an equimolar mixture of recombinant GST-MCL-1ΔNΔC, BCL-XLΔC and His-BFL-1ΔC; silver stain
Protocol: The biotinylated D-NA-NOXA-15 F32A SAHB or corresponding acetylated construct was incubated in an equimolar mixture with recombinant BFL-1, BCL-XL, and MCL-1, and then subjected to streptavidin pull-down. […] Additionally, the preferential interactions of these peptides were assessed with endogenous protein in lysates from the A375P melanoma cell line.
WT His-BFL-1ΔC, BCL-XLΔC (tagless), and GST-MCL-1ΔNΔC (1 μM each) were combined and incubated with 3 mM DTT in PBS for thirty minutes at room temperature. Mixtures were treated with vehicle or the indicated C-terminally biotinylated NOXA SAHB (1 μM) for four hours and were then added to 30 μL PBS-washed high-capacity streptavidin (SA) agarose beads (Thermo Fisher Pierce) and incubated with rotation at room temperature for two hours. The beads were then washed three times with NP-40 lysis buffer (1% NP-40, 50 mM Tris pH 8, 100 mM NaCl, 2.5 mM MgCl2) and three times with PBS. To elute bound protein, beads were boiled for ten minutes with 10% SDS containing 10 mg/mL biotin. After elution, samples were boiled with 3×LDS and 2M DTT for twenty minutes. Gel electrophoresis using a 12% Bis-Tris gel was conducted on inputs (2%) and eluates ([…]) and gels were developed using the Pierce silver staining kit (Thermo Fisher).

His-BFL-1ΔC C4S/C19S = target: T4, His-BFL-1ΔC C4S/C19S (human, UniProt Q16548 1-151); assay: competitive fluorescence polarization against FITC-BID BH3
T4 construct: also called BFL-1 C4S/C19S; not shown: N-terminal hexahistidine tag (pET17b)
T4 chain: T1 sequence with C4S, C19S
Protocol: (§1) The warhead-bearing D-NA-NOXA-15 R31E SAHB was only able to compete with FITC-BID BH3 for binding to BFL-1ΔC C4S/C19S (FIG. 20), and this activity was dependent on the presence of Cys55 in the BH3-binding pocket, as this effect was not observed with BFL-1ΔC C4S/C19S/C55S (FIG. 21).
(§2) Fluorescence polarization (FP) assays were performed as previously described (Pitter et al., 2008 (supra)). Briefly, direct binding curves were first generated by FITC-BID BH3 (25 nM) with serial dilutions of anti-apoptotic protein, and FP was measured at 5 min on a SpectraMax M5 microplate reader (Molecular Devices). For competition assays, a serial dilution of acetylated or warhead-bearing NOXA SAHB was added to the indicated recombinant protein at ~EC75 concentration, as determined by the direct binding assay. FITC-BID BH3 (25 nM) was then added and fluorescence polarization was measured at equilibrium. IC50 values were calculated by nonlinear regression analysis of competitive binding curves using PRISM software (GraphPad).

MCL-1ΔNΔC = target: T5, MCL-1ΔNΔC (human, UniProt Q07820 172-329); assay: as above
T5 construct: As printed for the fluorescence polarization assay
Protocol: as §1, §2

T5 sequence (Q07820 172-329, stated change not applied): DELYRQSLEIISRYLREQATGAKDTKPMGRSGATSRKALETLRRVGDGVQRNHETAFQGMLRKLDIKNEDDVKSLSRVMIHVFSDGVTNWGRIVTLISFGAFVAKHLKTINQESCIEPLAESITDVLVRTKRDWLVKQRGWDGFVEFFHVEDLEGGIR

- binding result (His-BFL-1ΔC C4S/C19S): binds
- binding result (MCL-1ΔNΔC): binds
- binding result (His-BFL-1ΔC [1]): binds
- binding result [2]: binds
- binding result (full length HA-BFL1): binds
B3: D-NA-NOXA-15 R31E (peptide)
peptide: {D‑NA}-AT[R8]LREFGD[S5]LNFRQ
modifications: staple 3-10
notes: also called D-NA-NOXA SAHB-15 R31E; cysteine-reactive NOXA-15 R31E SAHB

- binding result (MCL-1ΔNΔC): binds
B4: Ac-NOXA-15 R31E (peptide)
peptide: Ac-AT[R8]LREFGD[S5]LNFRQ
modifications: staple 3-10
notes: also called acetylated NOXA-15 R31E SAHB; acetylated counterpart of D-NA-NOXA-15 R31E

Continued, binder first:

B1: D-NA-NOXA-15 F32A (peptide)
peptide: {D‑NA}-AT[R8]LRRAGD[S5]LNFRQ
modifications: staple 3-10
notes: also called D-NA-NOXA SAHB-15 F32A; cysteine-reactive NOXA-15 F32A SAHB
- binding result (His-BFL-1ΔC [1]): binds
- binding result [2]: binds
- binding result (full length HA-BFL1): binds

B2: biotinylated Ac-NOXA-15 R31E SAHB (peptide)
peptide: Ac-AT[R8]LREFGD[S5]LNFRQK(Biotin)
modifications: staple 3-10
notes: also called acetylated counterpart of D-NA-NOXA-15 R31E
- binding result (His-BFL-1ΔC [3]): no binding (tested: 1 µM)
